In the supplement of paper PMC10065799, “High-throughput profiling of sequence recognition by tyrosine kinases and SH2 domains using bacterial peptide display” (eLife, 2023) one finds SH2 binding enrichment and phosphorylation enrichment data, which are given here for 7 sequences.

One series has as its target SHP2-C SH2. In words: SH2 binding enrichment of the phosphorylated peptide, bacterial display (enrichment ratio); higher = better substrate or ligand; peptides without Tyr show the background.
The target in another series is c-Src SH2. The series is described as above.
The target in another series is Grb2 SH2 (UniProt P62993). The series is described as above.
In a further series the test system is AncSZ. The experiment in a line: phosphorylation enrichment, bacterial display (enrichment ratio); higher = better substrate or ligand; peptides without Tyr show the background.
The target of another series is EPHB2 (UniProt P29323). The description is as above.
For a further series, the target named is EPHB1 (UniProt P54762). The description is as above.
In the next series the target is FGFR3 (UniProt P22607). The description is as above.
For a further series, the target named is Jak2 (UniProt O60674). The description is as above.
In the next series the target is MERTK (UniProt Q12866). The series is described as above.
Another series deals with c-Abl (mouse). Described as above.
The next series addresses Fes (UniProt P07332). Described as above.
A further series has as its target FGFR1 (UniProt P11362). The description is as above.
Another series concerns the target Fyn (UniProt P06241). Described as above.
Another series relates to c-Src. The series is described as above.
The next series concerns the target Hck (UniProt P08631). Described as above.
The next series has as its system Fer (mouse). The description is as above.
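Wherever SH2 binding enrichment of the phosphorylated peptide, bacterial display is given: peptide library displayed on the E. coli surface as eCPX fusions, selected cells deep-sequenced, score is each peptide's frequency after selection divided by its frequency in the input.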
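Wherever phosphorylation enrichment, bacterial display is given: 11-residue human phosphosite peptides and single-mutation variants displayed on the E. coli surface, counted by deep sequencing, each peptide's frequency after selection divided by its frequency in the unselected input library; frequency after pTyr selection over input frequency; kinase dosed for 20-30% of maximal phosphorylation in three min.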

Chain of MERTK (Q12866 whole entry, looked up): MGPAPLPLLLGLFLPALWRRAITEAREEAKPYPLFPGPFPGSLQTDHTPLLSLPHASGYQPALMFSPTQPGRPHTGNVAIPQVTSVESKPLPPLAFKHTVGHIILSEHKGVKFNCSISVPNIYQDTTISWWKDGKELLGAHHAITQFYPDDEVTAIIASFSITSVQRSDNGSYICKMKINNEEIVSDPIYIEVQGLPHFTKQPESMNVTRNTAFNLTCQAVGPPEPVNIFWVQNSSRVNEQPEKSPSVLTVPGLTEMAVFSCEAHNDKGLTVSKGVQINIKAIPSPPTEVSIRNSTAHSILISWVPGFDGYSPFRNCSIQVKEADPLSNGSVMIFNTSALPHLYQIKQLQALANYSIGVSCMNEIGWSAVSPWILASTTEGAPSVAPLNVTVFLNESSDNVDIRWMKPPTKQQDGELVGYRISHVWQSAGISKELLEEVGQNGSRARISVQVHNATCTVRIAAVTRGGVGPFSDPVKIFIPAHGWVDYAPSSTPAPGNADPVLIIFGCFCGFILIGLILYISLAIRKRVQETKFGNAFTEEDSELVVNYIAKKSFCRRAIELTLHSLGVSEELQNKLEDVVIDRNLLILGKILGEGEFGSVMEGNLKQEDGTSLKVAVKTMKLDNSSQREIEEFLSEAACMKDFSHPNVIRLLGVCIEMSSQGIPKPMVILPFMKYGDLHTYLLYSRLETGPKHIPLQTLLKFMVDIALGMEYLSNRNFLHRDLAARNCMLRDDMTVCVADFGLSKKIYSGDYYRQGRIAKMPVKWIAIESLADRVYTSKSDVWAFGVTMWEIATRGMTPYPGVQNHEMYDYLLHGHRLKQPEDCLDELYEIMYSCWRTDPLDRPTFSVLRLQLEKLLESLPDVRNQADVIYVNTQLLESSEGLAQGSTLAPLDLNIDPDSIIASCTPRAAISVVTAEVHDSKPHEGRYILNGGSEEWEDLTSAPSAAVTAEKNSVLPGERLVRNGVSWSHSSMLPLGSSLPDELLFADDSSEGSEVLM
Chain of EPHB1 (P54762 whole entry, looked up): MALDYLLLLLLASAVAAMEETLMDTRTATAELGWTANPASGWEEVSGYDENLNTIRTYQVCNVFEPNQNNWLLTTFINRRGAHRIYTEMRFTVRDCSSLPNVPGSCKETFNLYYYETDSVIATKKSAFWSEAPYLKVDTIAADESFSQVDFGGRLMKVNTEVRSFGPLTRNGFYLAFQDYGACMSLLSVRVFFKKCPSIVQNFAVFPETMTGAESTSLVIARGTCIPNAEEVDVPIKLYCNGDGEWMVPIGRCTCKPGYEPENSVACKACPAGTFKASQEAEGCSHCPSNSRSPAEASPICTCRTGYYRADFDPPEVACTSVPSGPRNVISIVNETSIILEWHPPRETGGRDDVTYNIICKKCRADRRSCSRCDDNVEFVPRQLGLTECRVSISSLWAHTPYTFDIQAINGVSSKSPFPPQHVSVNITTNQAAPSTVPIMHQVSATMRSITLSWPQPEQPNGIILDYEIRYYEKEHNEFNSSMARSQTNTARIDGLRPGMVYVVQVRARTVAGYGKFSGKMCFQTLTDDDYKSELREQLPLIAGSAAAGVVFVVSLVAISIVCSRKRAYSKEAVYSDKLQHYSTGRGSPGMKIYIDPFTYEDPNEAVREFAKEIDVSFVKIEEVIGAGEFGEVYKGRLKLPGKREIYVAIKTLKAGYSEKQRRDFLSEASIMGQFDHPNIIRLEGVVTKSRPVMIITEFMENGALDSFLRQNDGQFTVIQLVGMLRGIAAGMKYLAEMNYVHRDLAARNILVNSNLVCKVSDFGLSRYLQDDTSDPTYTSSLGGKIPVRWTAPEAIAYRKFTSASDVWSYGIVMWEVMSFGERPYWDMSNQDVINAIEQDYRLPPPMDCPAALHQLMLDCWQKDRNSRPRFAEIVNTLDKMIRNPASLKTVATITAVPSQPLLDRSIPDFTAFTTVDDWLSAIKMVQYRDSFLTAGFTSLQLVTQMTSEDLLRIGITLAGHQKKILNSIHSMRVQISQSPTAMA
Chain of Fyn (P06241 whole entry, looked up): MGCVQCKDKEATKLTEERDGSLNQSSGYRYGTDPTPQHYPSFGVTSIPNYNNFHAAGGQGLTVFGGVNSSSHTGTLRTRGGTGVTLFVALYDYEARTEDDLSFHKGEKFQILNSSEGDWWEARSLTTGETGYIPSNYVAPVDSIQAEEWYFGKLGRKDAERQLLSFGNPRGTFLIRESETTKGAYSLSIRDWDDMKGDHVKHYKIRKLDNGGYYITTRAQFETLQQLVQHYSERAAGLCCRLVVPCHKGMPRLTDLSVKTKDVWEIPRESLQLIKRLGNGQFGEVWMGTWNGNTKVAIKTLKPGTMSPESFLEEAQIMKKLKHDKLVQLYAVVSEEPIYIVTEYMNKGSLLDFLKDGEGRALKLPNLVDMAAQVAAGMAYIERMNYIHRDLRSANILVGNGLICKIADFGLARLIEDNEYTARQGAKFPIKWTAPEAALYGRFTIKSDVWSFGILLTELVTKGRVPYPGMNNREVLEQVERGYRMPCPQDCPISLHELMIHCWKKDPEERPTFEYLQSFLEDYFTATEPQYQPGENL
Chain of Jak2 (O60674 whole entry, looked up): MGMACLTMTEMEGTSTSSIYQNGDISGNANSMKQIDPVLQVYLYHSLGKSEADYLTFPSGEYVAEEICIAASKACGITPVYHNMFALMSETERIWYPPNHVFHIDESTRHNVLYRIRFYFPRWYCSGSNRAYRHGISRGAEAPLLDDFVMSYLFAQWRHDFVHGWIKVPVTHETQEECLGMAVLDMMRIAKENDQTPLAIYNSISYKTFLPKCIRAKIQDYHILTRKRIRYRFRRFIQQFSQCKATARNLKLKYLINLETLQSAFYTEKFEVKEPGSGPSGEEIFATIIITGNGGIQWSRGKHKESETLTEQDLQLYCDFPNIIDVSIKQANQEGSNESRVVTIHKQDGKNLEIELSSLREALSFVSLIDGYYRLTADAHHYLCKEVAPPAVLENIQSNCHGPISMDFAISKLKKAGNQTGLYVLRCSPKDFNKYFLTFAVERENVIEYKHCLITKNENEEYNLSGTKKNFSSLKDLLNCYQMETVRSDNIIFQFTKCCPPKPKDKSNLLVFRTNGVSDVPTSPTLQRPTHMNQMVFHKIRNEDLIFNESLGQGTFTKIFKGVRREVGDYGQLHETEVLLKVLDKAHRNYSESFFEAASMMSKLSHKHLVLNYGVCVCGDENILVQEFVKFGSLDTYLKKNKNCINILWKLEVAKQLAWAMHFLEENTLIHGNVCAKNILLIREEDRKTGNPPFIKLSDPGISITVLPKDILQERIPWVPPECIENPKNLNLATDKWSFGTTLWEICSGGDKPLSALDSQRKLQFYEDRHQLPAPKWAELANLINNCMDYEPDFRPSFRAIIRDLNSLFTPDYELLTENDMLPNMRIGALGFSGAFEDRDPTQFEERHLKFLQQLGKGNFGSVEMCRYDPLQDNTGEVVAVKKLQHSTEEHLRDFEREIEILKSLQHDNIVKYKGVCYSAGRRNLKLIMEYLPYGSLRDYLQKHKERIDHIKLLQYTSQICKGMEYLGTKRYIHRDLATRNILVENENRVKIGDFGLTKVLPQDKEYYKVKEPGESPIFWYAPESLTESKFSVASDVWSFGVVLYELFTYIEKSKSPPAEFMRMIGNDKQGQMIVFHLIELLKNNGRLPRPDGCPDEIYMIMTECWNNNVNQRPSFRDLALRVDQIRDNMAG
Chain of Fes (P07332 whole entry, looked up): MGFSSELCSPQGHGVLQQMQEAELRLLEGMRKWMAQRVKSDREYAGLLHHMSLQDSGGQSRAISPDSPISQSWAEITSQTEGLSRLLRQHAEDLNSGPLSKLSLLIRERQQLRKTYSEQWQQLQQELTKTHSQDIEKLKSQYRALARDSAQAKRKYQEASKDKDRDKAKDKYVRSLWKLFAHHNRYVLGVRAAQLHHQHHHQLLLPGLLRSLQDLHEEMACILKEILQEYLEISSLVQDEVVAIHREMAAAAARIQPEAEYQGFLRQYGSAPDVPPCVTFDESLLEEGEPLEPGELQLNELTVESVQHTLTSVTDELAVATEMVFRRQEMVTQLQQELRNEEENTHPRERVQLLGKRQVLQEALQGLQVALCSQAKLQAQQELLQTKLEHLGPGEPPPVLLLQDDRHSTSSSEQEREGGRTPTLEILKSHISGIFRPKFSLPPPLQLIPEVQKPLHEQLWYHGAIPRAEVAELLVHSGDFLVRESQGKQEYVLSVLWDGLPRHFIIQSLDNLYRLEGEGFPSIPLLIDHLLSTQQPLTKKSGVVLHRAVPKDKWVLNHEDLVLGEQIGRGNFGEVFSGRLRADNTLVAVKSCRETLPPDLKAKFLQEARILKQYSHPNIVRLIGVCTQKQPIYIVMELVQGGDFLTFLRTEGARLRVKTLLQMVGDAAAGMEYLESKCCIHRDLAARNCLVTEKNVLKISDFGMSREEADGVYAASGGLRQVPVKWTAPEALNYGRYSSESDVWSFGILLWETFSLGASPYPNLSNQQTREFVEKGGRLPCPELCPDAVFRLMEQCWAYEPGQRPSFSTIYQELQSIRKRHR
Chain of Hck (P08631 whole entry, looked up): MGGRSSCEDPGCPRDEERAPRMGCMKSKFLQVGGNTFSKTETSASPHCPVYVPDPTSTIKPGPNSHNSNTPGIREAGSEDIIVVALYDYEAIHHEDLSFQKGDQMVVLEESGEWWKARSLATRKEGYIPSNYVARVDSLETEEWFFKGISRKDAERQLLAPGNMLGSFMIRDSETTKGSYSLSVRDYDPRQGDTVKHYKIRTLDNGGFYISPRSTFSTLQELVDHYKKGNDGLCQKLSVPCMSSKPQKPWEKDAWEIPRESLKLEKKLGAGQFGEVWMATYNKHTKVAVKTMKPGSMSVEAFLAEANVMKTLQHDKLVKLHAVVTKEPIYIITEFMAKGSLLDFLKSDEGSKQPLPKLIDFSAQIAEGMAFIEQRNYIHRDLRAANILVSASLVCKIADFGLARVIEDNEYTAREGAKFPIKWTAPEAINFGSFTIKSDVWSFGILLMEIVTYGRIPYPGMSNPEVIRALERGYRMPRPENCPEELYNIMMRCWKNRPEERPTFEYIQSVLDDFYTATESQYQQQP

Regarding FASALYGQRRS [FGF11_Y162_R163G_YF], the SH2 binding enrichment worked out at 0.457 in the series with SHP2-C SH2, 0.511 with c-Src SH2 and 0.659 with Grb2 SH2. Moreover, the phosphorylation enrichment with AncSZ stood at 0.724; in the series with EPHB2 it was 0.415; with EPHB1, 0.343; with FGFR3, 0.442; in the series with Jak2, 0.616; with MERTK, 0.516. Further, the phosphorylation enrichment stood at 0.47 with c-Abl (mouse); 0.682 with Fes; 0.364 with FGFR1; 0.444 with Fyn; 0.641 in the series on c-Src; 0.903 in the series with Hck. Also, in the series on Fer (mouse), the phosphorylation enrichment is 0.505.

In the case of HRGHLYLAIEF [TEK_Y899_Y897H_YF], the results for the SH2 binding enrichment with SHP2-C SH2, in the series with c-Src SH2 and with Grb2 SH2 were 0.722, 0.571 and 0.645, respectively. The phosphorylation enrichment in the series with AncSZ was 3.67; in the series with EPHB2, 1.67; with EPHB1, 1.78; with FGFR3, 1.79; with Jak2, 6.33; in the series with MERTK it was 1.64. The phosphorylation enrichment came to 9.68 with c-Abl (mouse); 8.12 with Fes; 1.41 with FGFR1; 1.49 in the series with Fyn; 2.63 in the series on c-Src; 1.5 with Hck. Moreover, the phosphorylation enrichment in the series on Fer (mouse) turned out to be 1.38.

As for IEEGTYGVVYR [CDK11B_Y449], the figures for the SH2 binding enrichment with SHP2-C SH2, in the series with c-Src SH2 and with Grb2 SH2 were 0.668, 0.451 and 0.834, respectively. For the same sequence, the phosphorylation enrichment with AncSZ amounted to 1.33; with EPHB2, 10.8; with EPHB1 it was 4.1; with FGFR3, 0.702; with Jak2, 0.902; in the series with MERTK it was 4. The phosphorylation enrichment is 1.3 with c-Abl (mouse); 1.01 with Fes; 0.509 in the series with FGFR1; 8.95 in the series with Fyn; 5.65 in the series with c-Src; 7.29 with Hck. For the same sequence, the phosphorylation enrichment in the series on Fer (mouse) worked out at 7.46.

Turning to KPLMPYMRYSR [SMARCE1_Y73], the results for the SH2 binding enrichment with SHP2-C SH2, in the series with c-Src SH2 and with Grb2 SH2 were 0.609, 0.402 and 0.78, respectively. Moreover, the phosphorylation enrichment in the series with AncSZ came out at 0.787; in the series with EPHB2, 0.449; with EPHB1, 0.353; in the series with FGFR3 it was 0.431; with Jak2, 0.626; with MERTK, 0.467. Moreover, the phosphorylation enrichment in the series with c-Abl (mouse) was determined as 0.635; in the series with Fes it was 0.761; with FGFR1 it was 0.449; with Fyn, 0.432; with c-Src, 0.52; in the series with Hck, 0.435. Besides, the phosphorylation enrichment in the series with Fer (mouse) stood at 0.384.

Turning to PTTKTYFPHFY [HBA1_Y43_D48Y], the SH2 binding enrichment in the series with SHP2-C SH2 turned out to be 1.25; with c-Src SH2, 0.73; with Grb2 SH2 it was 0.771. The phosphorylation enrichment was 0.782 in the series with AncSZ; 0.735 with EPHB2; 0.46 with EPHB1; 1.14 in the series with FGFR3; 0.974 in the series with Jak2; 0.508 in the series with MERTK. The phosphorylation enrichment was determined as 0.785 in the series with c-Abl (mouse); 0.873 with Fes; 0.628 with FGFR1; 0.884 with Fyn; 0.56 in the series with c-Src; 0.535 in the series with Hck. For the same sequence, the phosphorylation enrichment in the series on Fer (mouse) is 0.825.

Take HLAQRYLIWEC [SCN5A_Y694_R689H]: the SH2 binding enrichment with SHP2-C SH2 was determined as 0.872; in the series with c-Src SH2, 0.644; with Grb2 SH2, 0.965. Also, the phosphorylation enrichment in the series on AncSZ came out at 1.62; with EPHB2, 0.944; with EPHB1 it was 1.03; with FGFR3, 1.26; with Jak2, 1.02; in the series with MERTK, 0.533. Moreover, the phosphorylation enrichment amounted to 0.929 in the series on c-Abl (mouse); 1.65 with Fes; 0.788 with FGFR1; 0.953 in the series with Fyn; 0.503 in the series with c-Src; 0.79 with Hck. In addition, in the series with Fer (mouse), the phosphorylation enrichment worked out at 0.616.

As to DHTVNYVLKCR [PLEKHG4_Y1068_R1064H], the SH2 binding enrichment with SHP2-C SH2 was 0.63; with c-Src SH2, 0.346; with Grb2 SH2 it was 0.67. The phosphorylation enrichment came out at 1.18 in the series on AncSZ; 0.677 with EPHB2; 0.699 with EPHB1; 0.855 with FGFR3; 1.09 in the series with Jak2; 0.419 with MERTK. In addition, the phosphorylation enrichment in the series on c-Abl (mouse) is 0.859; with Fes, 1.38; in the series with FGFR1, 0.602; in the series with Fyn, 0.479; in the series with c-Src, 0.409; with Hck, 0.532. Besides, in the series with Fer (mouse), the phosphorylation enrichment amounted to 0.512.
